Reference: patent US6376240, “RFLAT-1: a transcription factor that activates RANTES gene expression” (Board of Trustees of the Leland Stanford Junior Unversity)

B1: kB probe (dsDNA)
DNA 1: AATTCGTCAGAGGGGACTTTCCGAGAG
DNA 2: CTCTCGGAAAGTCCCCTCTGACGAATT
B2: E probe (dsDNA)
DNA 1: AATTCTTTGTGCAATTTCACTTATGATACCG
DNA 2: CGGTATCATAAGTGAAATTGCACAAAGAATT
B3: B probe (dsDNA)
DNA 1: AATTCGCTAGGGGATGCCCCTCAACTGCG
DNA 2: CGCAGTTGAGGGGCATCCCCTAGCGAATT
B4: A probe (dsDNA)
DNA 1: AATTCGTTGCTATTTTGGAAACTCCCCTTG
DNA 2: CAAGGGGAGTTTCCAAAATAGCAACGAATT
B5: C probe (dsDNA)
DNA 1: AATTCTCTAGATGAGAGAGCAGTGAGGGAGAGACG
DNA 2: CGTCTCTCCCTCACTGCTCTCTCATCTAGAGAATT
B6: A/B probe (dsDNA)
DNA 1: AATTCGCTATTTTGGAAACTCCCCTTAGGGGATGCCCCTCAACTGCG
DNA 2: CGCAGTTGAGGGGCATCCCCTAAGGGGAGTTTCCAAAATAGCGAATT

The binders below were run against T1, RFLAT-1 C-terminal portion (aa 59-288) (homo sapien, UniProt Q9Y2Y9 SEQ:59-288) (assay: EMSA). Settings: tags: His6 (pET-28a); label: 32P.
T1 sequence (Q9Y2Y9 other isoform, or with tags, fused parts or gaps): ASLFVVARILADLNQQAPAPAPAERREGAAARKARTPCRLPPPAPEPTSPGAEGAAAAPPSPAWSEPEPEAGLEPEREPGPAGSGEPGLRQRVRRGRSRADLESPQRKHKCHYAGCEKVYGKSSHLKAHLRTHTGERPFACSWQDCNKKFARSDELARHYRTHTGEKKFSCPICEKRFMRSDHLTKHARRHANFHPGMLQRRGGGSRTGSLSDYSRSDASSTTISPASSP
Description: (§1) The wells were incubated in blocking buffer (5% goat serum, 5% horse serum, 0.1% Triton X-100 in PBS), washed in PBS supplemented with 0.1% Triton X-100, and incubated with antigen purified rabbit polyclonal anti-RFLAT-1 (1:500 [v/v]) or rabbit IgG (1:500 [v/v]) (Santa Cruz Biotechnology, Santa Cruz, Calif.). The wells were washed, incubated with goat anti-rabbit FITC (1:2000 [v/v]) (Caltag, Burlingame, Calif.), and anti-FITC Alexa™ 488 (1:2000 [v/v]) (Molecular Probes, Eugene, Oreg.). Finally, the slide was washed with PBS, covered with mounting media (1:3 [v/v], Vectashield with propidium iodide) (Vector, Burlingame, Calif.), cover slipped and sealed. EMSA and supershift assays were performed essentially as described by Ortiz et al., 1996, supra. Oligonucleotides were synthesized by Life Technologies, Inc. (Gaithersburg, Md.) and purified by a polyacrylamide-urea gel. Oligonucleotides were end-labeled using [γ-^32P] ATP and T4 polynucleotide kinase. The following oligonucleotides were used:
(§2) A carboxyl terminal portion of RFLAT-1, including the zinc finger DNA binding domain (nucleotides 550–1430), was isolated through expression cloning using an oligonucleotide probe containing three tandem A sites of the RANTES promoter.

Binder	binding result
B1	no binding
B2	no binding
B3	no binding
B4	binds
B5	no binding

These binders were tested against T1, RFLAT-1 C-terminal portion (aa 59-288) (assay: EMSA; two retarded bands, possible oligomerization). Settings: tags: His6 (pET-28a); label: 32P.
Description: as §1, §2

Binder	binding result
B6	binds
